Tested on: peptide library, one residue held at a place counted from the Y acceptor
Experiment: relative phosphorylation of the sub-library (ratio to the mean residue at this position); higher = residue favoured
How it was run: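 Biotinylated Tyr-centred peptide library mixtures, each fixing one residue at one position from −5 to +5, were incubated with purified recombinant kinases in 384-well plates for 90 min with 50 μM ATP plus γ-32P-ATP. Streptavidin membranes captured the peptides, which were rinsed and quantified by phosphorimaging and ImageQuant. At each position, intensities were divided by the sum of the 18 randomized residues (16 for the Ser/Thr-free library) and multiplied by that number. Each value is phosphorylation relative to the mean randomized residue.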

Chain of BLK, construct: Full length, human (P51451 whole entry, looked up): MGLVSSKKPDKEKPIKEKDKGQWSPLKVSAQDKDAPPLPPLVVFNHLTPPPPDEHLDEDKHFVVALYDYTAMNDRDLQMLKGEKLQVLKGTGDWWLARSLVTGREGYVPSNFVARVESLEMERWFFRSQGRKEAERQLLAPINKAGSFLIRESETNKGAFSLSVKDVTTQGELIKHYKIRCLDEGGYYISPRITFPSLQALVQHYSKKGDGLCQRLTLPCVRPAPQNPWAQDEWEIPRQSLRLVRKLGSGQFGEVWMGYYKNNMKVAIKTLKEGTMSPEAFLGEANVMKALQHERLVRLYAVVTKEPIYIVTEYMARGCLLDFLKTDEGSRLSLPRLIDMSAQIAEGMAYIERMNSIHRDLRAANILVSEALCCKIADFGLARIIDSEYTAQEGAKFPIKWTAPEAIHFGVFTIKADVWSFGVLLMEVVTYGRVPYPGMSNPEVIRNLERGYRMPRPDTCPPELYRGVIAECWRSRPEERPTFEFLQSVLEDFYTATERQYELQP

Q: Which results are given for “BLK, construct: Full length, human (from UniProt P51451)”?
A: relative phosphorylation (A fixed, at +1): 2.14; relative phosphorylation (A fixed, at +2): 1.24; relative phosphorylation (A fixed, at +3): 0.602; relative phosphorylation (A fixed, at +4): 0.865; relative phosphorylation (A fixed, at +5): 0.935; relative phosphorylation (A fixed, at -1): 0.611; relative phosphorylation (A fixed, at -2): 1.17; relative phosphorylation (A fixed, at -3): 0.881; relative phosphorylation (A fixed, at -4): 1.14; relative phosphorylation (A fixed, at -5): 1.08; relative phosphorylation (D fixed, at +1): 1.33; relative phosphorylation (D fixed, at +2): 0.554; relative phosphorylation (D fixed, at +3): 0.236; relative phosphorylation (D fixed, at +4): 0.56; relative phosphorylation (D fixed, at +5): 0.668; relative phosphorylation (D fixed, at -1): 0.87; relative phosphorylation (D fixed, at -2): 1.64; relative phosphorylation (D fixed, at -3): 1.7; relative phosphorylation (D fixed, at -4): 1.68; relative phosphorylation (D fixed, at -5): 1.46; relative phosphorylation (E fixed, at +1): 2; relative phosphorylation (E fixed, at +2): 1.17; relative phosphorylation (E fixed, at +3): 0.228; relative phosphorylation (E fixed, at +4): 0.643; relative phosphorylation (E fixed, at +5): 0.62; relative phosphorylation (E fixed, at -1): 1.58; relative phosphorylation (E fixed, at -2): 2.03; relative phosphorylation (E fixed, at -3): 2.08; relative phosphorylation (E fixed, at -4): 1.68; relative phosphorylation (E fixed, at -5): 1.35; relative phosphorylation (F fixed, at +1): 0.463; relative phosphorylation (F fixed, at +2): 0.799; relative phosphorylation (F fixed, at +3): 1.9; relative phosphorylation (F fixed, at +4): 1.14; relative phosphorylation (F fixed, at +5): 1.02; relative phosphorylation (F fixed, at -1): 0.648; relative phosphorylation (F fixed, at -2): 0.466; relative phosphorylation (F fixed, at -3): 0.996; relative phosphorylation (F fixed, at -4): 0.777; relative phosphorylation (F fixed, at -5): 0.846; relative phosphorylation (G fixed, at +1): 3.16; relative phosphorylation (G fixed, at +2): 0.79; relative phosphorylation (G fixed, at +3): 0.772; relative phosphorylation (G fixed, at +4): 1.28; relative phosphorylation (G fixed, at +5): 1.12; relative phosphorylation (G fixed, at -1): 0.46; relative phosphorylation (G fixed, at -2): 1.41; relative phosphorylation (G fixed, at -3): 1.09; relative phosphorylation (G fixed, at -4): 1.34; relative phosphorylation (G fixed, at -5): 1.27; relative phosphorylation (H fixed, at +1): 0.603; relative phosphorylation (H fixed, at +2): 0.666; relative phosphorylation (H fixed, at +3): 0.822; relative phosphorylation (H fixed, at +4): 1.2; relative phosphorylation (H fixed, at +5): 1.08; relative phosphorylation (H fixed, at -1): 0.592; relative phosphorylation (H fixed, at -2): 0.778; relative phosphorylation (H fixed, at -3): 1.05; relative phosphorylation (H fixed, at -4): 0.879; relative phosphorylation (H fixed, at -5): 0.978; relative phosphorylation (I fixed, at +1): 0.558; relative phosphorylation (I fixed, at +2): 0.865; relative phosphorylation (I fixed, at +3): 2.22; relative phosphorylation (I fixed, at +4): 0.721; relative phosphorylation (I fixed, at +5): 0.713; relative phosphorylation (I fixed, at -1): 3.23; relative phosphorylation (I fixed, at -2): 0.629; relative phosphorylation (I fixed, at -3): 0.607; relative phosphorylation (I fixed, at -4): 0.833; relative phosphorylation (I fixed, at -5): 0.764; relative phosphorylation (K fixed, at +1): 0.198; relative phosphorylation (K fixed, at +2): 0.856; relative phosphorylation (K fixed, at +3): 0.598; relative phosphorylation (K fixed, at +4): 1.35; relative phosphorylation (K fixed, at +5): 1.39; relative phosphorylation (K fixed, at -1): 0.303; relative phosphorylation (K fixed, at -2): 0.597; relative phosphorylation (K fixed, at -3): 0.47; relative phosphorylation (K fixed, at -4): 0.732; relative phosphorylation (K fixed, at -5): 0.941; relative phosphorylation (L fixed, at +1): 0.458; relative phosphorylation (L fixed, at +2): 0.767; relative phosphorylation (L fixed, at +3): 2.47; relative phosphorylation (L fixed, at +4): 1.13; relative phosphorylation (L fixed, at +5): 0.834; relative phosphorylation (L fixed, at -1): 1.8; relative phosphorylation (L fixed, at -2): 0.682; relative phosphorylation (L fixed, at -3): 0.73; relative phosphorylation (L fixed, at -4): 0.805; relative phosphorylation (L fixed, at -5): 0.721; relative phosphorylation (M fixed, at +1): 1.11; relative phosphorylation (M fixed, at +2): 0.83; relative phosphorylation (M fixed, at +3): 0.927; relative phosphorylation (M fixed, at +4): 1.16; relative phosphorylation (M fixed, at +5): 0.938; relative phosphorylation (M fixed, at -1): 0.995; relative phosphorylation (M fixed, at -2): 0.605; relative phosphorylation (M fixed, at -3): 0.853; relative phosphorylation (M fixed, at -4): 0.913; relative phosphorylation (M fixed, at -5): 0.816; relative phosphorylation (N fixed, at +1): 0.538; relative phosphorylation (N fixed, at +2): 0.874; relative phosphorylation (N fixed, at +3): 0.448; relative phosphorylation (N fixed, at +4): 0.796; relative phosphorylation (N fixed, at +5): 0.93; relative phosphorylation (N fixed, at -1): 0.421; relative phosphorylation (N fixed, at -2): 1.3; relative phosphorylation (N fixed, at -3): 1.37; relative phosphorylation (N fixed, at -4): 0.96; relative phosphorylation (N fixed, at -5): 1.09; relative phosphorylation (P fixed, at +1): 0.222; relative phosphorylation (P fixed, at +2): 1.29; relative phosphorylation (P fixed, at +3): 0.565; relative phosphorylation (P fixed, at +4): 0.834; relative phosphorylation (P fixed, at +5): 1.18; relative phosphorylation (P fixed, at -1): 0.706; relative phosphorylation (P fixed, at -2): 1.35; relative phosphorylation (P fixed, at -3): 0.917; relative phosphorylation (P fixed, at -4): 1.2; relative phosphorylation (P fixed, at -5): 1.23; relative phosphorylation (Q fixed, at +1): 1.16; relative phosphorylation (Q fixed, at +2): 0.957; relative phosphorylation (Q fixed, at +3): 0.414; relative phosphorylation (Q fixed, at +4): 0.998; relative phosphorylation (Q fixed, at +5): 0.87; relative phosphorylation (Q fixed, at -1): 0.589; relative phosphorylation (Q fixed, at -2): 1.15; relative phosphorylation (Q fixed, at -3): 0.926; relative phosphorylation (Q fixed, at -4): 1.09; relative phosphorylation (Q fixed, at -5): 1.12; relative phosphorylation (R fixed, at +1): 0.335; relative phosphorylation (R fixed, at +2): 1.26; relative phosphorylation (R fixed, at +3): 1.3; relative phosphorylation (R fixed, at +4): 1.71; relative phosphorylation (R fixed, at +5): 1.78; relative phosphorylation (R fixed, at -1): 0.324; relative phosphorylation (R fixed, at -2): 0.707; relative phosphorylation (R fixed, at -3): 0.619; relative phosphorylation (R fixed, at -4): 0.81; relative phosphorylation (R fixed, at -5): 0.97; relative phosphorylation (S fixed, at +1): 1.15; relative phosphorylation (S fixed, at +2): 1.49; relative phosphorylation (S fixed, at +3): 0.608; relative phosphorylation (S fixed, at +4): 0.921; relative phosphorylation (S fixed, at +5): 1.06; relative phosphorylation (S fixed, at -1): 0.454; relative phosphorylation (S fixed, at -2): 1.16; relative phosphorylation (S fixed, at -3): 1.09; relative phosphorylation (S fixed, at -4): 0.833; relative phosphorylation (S fixed, at -5): 0.968; relative phosphorylation (T fixed, at +1): 0.904; relative phosphorylation (T fixed, at +2): 1.78; relative phosphorylation (T fixed, at +3): 0.724; relative phosphorylation (T fixed, at +4): 0.902; relative phosphorylation (T fixed, at +5): 1.09; relative phosphorylation (T fixed, at -1): 1.54; relative phosphorylation (T fixed, at -2): 1.07; relative phosphorylation (T fixed, at -3): 1.05; relative phosphorylation (T fixed, at -4): 0.82; relative phosphorylation (T fixed, at -5): 0.859; relative phosphorylation (V fixed, at +1): 0.71; relative phosphorylation (V fixed, at +2): 1.18; relative phosphorylation (V fixed, at +3): 1.29; relative phosphorylation (V fixed, at +4): 0.759; relative phosphorylation (V fixed, at +5): 0.786; relative phosphorylation (V fixed, at -1): 2.31; relative phosphorylation (V fixed, at -2): 0.762; relative phosphorylation (V fixed, at -3): 0.62; relative phosphorylation (V fixed, at -4): 0.737; relative phosphorylation (V fixed, at -5): 0.753; relative phosphorylation (W fixed, at +1): 0.956; relative phosphorylation (W fixed, at +2): 0.629; relative phosphorylation (W fixed, at +3): 1.88; relative phosphorylation (W fixed, at +4): 1.04; relative phosphorylation (W fixed, at +5): 0.981; relative phosphorylation (W fixed, at -1): 0.564; relative phosphorylation (W fixed, at -2): 0.478; relative phosphorylation (W fixed, at -3): 0.951; relative phosphorylation (W fixed, at -4): 0.784; relative phosphorylation (W fixed, at -5): 0.793; relative phosphorylation (pThr fixed, at +1): 0.782; relative phosphorylation (pThr fixed, at +2): 1.66; relative phosphorylation (pThr fixed, at +3): 0.255; relative phosphorylation (pThr fixed, at +4): 0.373; relative phosphorylation (pThr fixed, at +5): 0.472; relative phosphorylation (pThr fixed, at -1): 2.81; relative phosphorylation (pThr fixed, at -2): 1.61; relative phosphorylation (pThr fixed, at -3): 1.16; relative phosphorylation (pThr fixed, at -4): 1.21; relative phosphorylation (pThr fixed, at -5): 1.35; relative phosphorylation (pTyr fixed, at +1): 1.22; relative phosphorylation (pTyr fixed, at +2): 1.85; relative phosphorylation (pTyr fixed, at +3): 0.494; relative phosphorylation (pTyr fixed, at +4): 0.629; relative phosphorylation (pTyr fixed, at +5): 0.643; relative phosphorylation (pTyr fixed, at -1): 0.876; relative phosphorylation (pTyr fixed, at -2): 1.17; relative phosphorylation (pTyr fixed, at -3): 1.55; relative phosphorylation (pTyr fixed, at -4): 1.41; relative phosphorylation (pTyr fixed, at -5): 1.4

Reference: the supplement of paper PMC11136658
